# In EP0842426B1:
# Key:
# Assay in all cases: cell-based or functional assay
# [1] = target: EGF receptor on NIH3T3 cells and NIH3T3 clones transfected with EGF receptor expression constructs
# [2] = target: ecotropic MLV receptor (mouse) (UniProt Q09143)
# [3] = target: human epidermal growth factor receptor (human) (UniProt P00533)
# [4] = target: amphotropic receptor on human B and T cell lines (K422 and Jurkat) (human) (UniProt Q08357)
# [5] = target: amphotropic MLV receptor on NIH3T3 mouse fibroblasts (mouse) (UniProt Q80UP8)
# Chain of amphotropic MLV receptor on NIH3T3 mouse fibroblasts (mouse) (Q80UP8 whole entry): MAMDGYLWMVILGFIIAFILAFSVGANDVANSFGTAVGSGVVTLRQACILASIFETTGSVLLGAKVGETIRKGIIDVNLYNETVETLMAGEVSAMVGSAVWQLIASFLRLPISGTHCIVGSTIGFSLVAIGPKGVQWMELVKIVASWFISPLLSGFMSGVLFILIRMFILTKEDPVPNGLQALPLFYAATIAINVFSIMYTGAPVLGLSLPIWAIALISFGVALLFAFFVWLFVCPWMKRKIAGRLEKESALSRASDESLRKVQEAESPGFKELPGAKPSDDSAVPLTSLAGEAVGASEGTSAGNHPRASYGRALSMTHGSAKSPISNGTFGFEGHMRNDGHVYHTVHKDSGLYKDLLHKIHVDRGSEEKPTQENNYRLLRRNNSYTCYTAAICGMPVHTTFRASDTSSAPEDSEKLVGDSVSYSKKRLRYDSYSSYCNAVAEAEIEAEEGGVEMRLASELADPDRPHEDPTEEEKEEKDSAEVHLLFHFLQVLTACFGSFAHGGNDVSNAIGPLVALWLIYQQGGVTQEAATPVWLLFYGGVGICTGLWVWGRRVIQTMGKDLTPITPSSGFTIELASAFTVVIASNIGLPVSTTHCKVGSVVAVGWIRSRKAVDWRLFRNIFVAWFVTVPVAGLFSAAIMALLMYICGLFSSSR
# Chain of Moloney MLV ecotropic envelope glycoprotein (control envelope MO) (P03385 34-665 limits assumed): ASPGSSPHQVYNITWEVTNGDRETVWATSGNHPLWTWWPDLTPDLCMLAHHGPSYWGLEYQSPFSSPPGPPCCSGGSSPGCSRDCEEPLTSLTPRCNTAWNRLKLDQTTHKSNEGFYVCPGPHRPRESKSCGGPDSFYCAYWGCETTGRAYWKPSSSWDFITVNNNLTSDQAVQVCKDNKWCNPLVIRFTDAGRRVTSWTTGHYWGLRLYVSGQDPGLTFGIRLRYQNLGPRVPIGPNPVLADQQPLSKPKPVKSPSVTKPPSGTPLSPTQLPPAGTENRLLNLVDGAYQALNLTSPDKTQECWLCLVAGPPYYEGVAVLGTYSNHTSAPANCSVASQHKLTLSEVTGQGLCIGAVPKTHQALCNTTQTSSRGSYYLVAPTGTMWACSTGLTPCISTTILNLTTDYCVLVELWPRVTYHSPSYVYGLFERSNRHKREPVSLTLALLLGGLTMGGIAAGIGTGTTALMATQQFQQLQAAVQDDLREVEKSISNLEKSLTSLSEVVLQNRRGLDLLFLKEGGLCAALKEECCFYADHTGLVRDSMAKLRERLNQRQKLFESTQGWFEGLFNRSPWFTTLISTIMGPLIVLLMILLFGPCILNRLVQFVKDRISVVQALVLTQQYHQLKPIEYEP
# Chain of ecotropic MLV receptor (mouse) (Q09143 whole entry): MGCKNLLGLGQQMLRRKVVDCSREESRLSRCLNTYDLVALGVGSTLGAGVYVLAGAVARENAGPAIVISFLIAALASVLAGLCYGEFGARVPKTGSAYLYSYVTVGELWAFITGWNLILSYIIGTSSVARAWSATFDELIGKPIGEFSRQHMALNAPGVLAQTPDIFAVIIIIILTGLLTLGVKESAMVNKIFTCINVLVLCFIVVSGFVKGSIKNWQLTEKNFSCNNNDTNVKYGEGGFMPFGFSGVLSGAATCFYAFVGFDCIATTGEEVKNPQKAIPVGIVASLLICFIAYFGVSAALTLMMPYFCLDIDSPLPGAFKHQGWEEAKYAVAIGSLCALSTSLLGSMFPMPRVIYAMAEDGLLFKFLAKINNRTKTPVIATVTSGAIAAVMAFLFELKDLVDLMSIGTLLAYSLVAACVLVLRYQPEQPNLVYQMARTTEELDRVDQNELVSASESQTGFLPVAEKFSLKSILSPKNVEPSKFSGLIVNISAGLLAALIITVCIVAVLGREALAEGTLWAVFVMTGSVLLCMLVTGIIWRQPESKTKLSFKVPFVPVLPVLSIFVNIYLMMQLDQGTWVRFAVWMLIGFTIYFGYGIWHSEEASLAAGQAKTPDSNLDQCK
# Chain of amphotropic receptor on human B and T cell lines (K422 and Jurkat) (human) (Q08357 whole entry): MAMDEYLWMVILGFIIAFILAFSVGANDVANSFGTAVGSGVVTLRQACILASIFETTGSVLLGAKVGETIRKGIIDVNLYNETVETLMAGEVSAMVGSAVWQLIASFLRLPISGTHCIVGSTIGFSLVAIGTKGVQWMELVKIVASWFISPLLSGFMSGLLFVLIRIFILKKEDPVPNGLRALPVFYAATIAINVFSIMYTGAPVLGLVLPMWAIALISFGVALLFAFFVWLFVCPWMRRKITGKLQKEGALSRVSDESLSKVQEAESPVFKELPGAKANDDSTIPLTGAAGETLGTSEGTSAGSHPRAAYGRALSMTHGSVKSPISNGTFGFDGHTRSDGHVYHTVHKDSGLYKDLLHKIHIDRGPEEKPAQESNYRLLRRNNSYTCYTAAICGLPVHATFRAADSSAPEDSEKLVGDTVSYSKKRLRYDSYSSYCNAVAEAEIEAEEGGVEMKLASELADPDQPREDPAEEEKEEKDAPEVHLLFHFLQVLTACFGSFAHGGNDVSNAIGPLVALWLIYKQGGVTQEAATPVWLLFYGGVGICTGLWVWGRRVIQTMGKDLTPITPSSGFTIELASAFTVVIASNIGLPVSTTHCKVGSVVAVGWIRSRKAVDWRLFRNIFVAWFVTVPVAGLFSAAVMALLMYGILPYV
substance,measurement,setting,value
chimaeric EMO envelope glycoprotein (human EGF inserted in the Moloney MLV envelope SU glycoprotein at amino acid +6) (from UniProt P03385 34-39; P01133 23-1207; P03385 40-469),reduction of virus titre by EGF.R expression on mouse fibroblasts,[1],< 1000 fold
same,"titre on NIH3T3 cells with EGFR No. 10,000, lacZ-EFU/ml",[1],100000 lacZ-EFU/ml
same,"titre on NIH3T3 cells with EGFR No. 80,000, lacZ-EFU/ml",[1],10000 lacZ-EFU/ml
same,"titre on NIH3T3 cells with EGFR No. 400,000, lacZ-EFU/ml",[1],1000 lacZ-EFU/ml
same,"titre on 3T3 (NIH3T3), lacZ-EFU/ml",[2],100000 lacZ-EFU/ml
same,"titre on 3T3/A (GP+EAM12, expressing amphotropic envelope), lacZ-EFU/ml",[2],100000 lacZ-EFU/ml
same,"titre on 3T3/E (psi2, expressing MoMLV envelope), lacZ-EFU/ml",[2],< 1 lacZ-EFU/ml
same,"titre on A431 cells with chloroquine, lacZ EFU/ml",[3],225 lacZ EFU/ml
same,"titre on NR6-wt hEGF.R cells, + rEGF (pre-incubated with recombinant EGF), lacZ-EFU/ml",[3],100000 lacZ-EFU/ml
same,"titre on NR6-wt hEGF.R cells, - rEGF, lacZ-EFU/ml",[3],1000 lacZ-EFU/ml
same,"titre on TE671 cells with chloroquine, lacZ EFU/ml",[3],46 lacZ EFU/ml
Moloney MLV ecotropic envelope glycoprotein (control envelope MO) (from UniProt P03385 34-665),"titre on 3T3 (NIH3T3), lacZ-EFU/ml",[2],1e+07 lacZ-EFU/ml
same,"titre on 3T3/A (GP+EAM12, expressing amphotropic envelope), lacZ-EFU/ml",[2],1e+07 lacZ-EFU/ml
same,"titre on 3T3/E (psi2, expressing MoMLV envelope), lacZ-EFU/ml",[2],< 1 lacZ-EFU/ml
same,"titre on EJ.A1 cells, lacZ-EFU/ml",[2],1e+06 lacZ-EFU/ml
chimaeric EGF-4070A (EA) envelope glycoprotein (human EGF fused to the amphotropic 4070A MLV envelope at position +5) (from UniProt P03385 34-39; P01133 23-1207),"titre on Jurkat cells (devoid of EGF.R), lacZ-EFU/ml",[4],1000 lacZ-EFU/ml
same,"titre on K422 cells (devoid of EGF.R), lacZ-EFU/ml",[4],10000 lacZ-EFU/ml
same,inhibition of viral infection by EGF receptor expression on NR6 cells,[3],100 fold
same,"titre on NR6-wt hEGF.R cells, + rEGF (pre-incubated with recombinant EGF), lacZ-EFU/ml",[3],500000 lacZ-EFU/ml
same,"titre on NR6-wt hEGF.R cells, - rEGF, lacZ-EFU/ml",[3],3000 lacZ-EFU/ml
same,titre reduction on EGF receptor-positive human cells compared to control viruses with unmodified 4070A envelopes,[3],< 1e+07 fold
amphotropic 4070A MLV envelope glycoprotein (control envelope A),"titre on 3T3 (NIH3T3), lacZ-EFU/ml (row shifted by one column)",[5],1e+07 lacZ-EFU/ml
same,"titre on 3T3/A (GP+EAM12, expressing amphotropic envelope), lacZ-EFU/ml (row shifted by one column)",[5],100 lacZ-EFU/ml
same,"titre on 3T3/E (psi2, expressing MoMLV envelope), lacZ-EFU/ml (row shifted by one column)",[5],1e+07 lacZ-EFU/ml
